Experiments:
GST-Rabin8-L196A (human) = test: pull-down
GST-Rabin8-F201A (human) = test: pull-down

percent decrease of association against wild-type GST-Rabin8 (GST-Rabin8-L196A (human)): 39%
percent decrease of association against wild-type GST-Rabin8 (GST-Rabin8-F201A (human)): 52%
Substance: Rab8a (in vitro translated Rab8A-T22N or Rab8A-Q67L) (from UniProt P61006 1-207) (natural protein)
